Results taken from patent publication US20230406885A1, “CYCLIC PEPTIDES FOR TRAPPING INTERLEUKIN-1 BETA” (MERCK SHARP & DOHME LLC, priority 2022, published 2023).
*1 amine or outer side, *2 acyl side, *3 side chain or, on linkers, in order; H or OH if unused. [ ]: non-standard residue; d: D form. 3AzaPhe4AcPip = (S)-3-(6-(4-acetylpiperazin-1-yl)pyridin-3-yl)-2-aminopropanoic acid, CC(=O)N1CCN(c2ccc(C[C@H](N[*:1])C(=O)[*:2])cn2)CC1; Trp(4-Cl)(βS-Me) = C[C@@H](c1c[nH]c2cccc(Cl)c12)[C@H](N)C(=O)O; Pro(trans-4-NH2) = O=C([C@@H]1C[C@@H](N[*:3])CN1[*:1])[*:2]; Trp(βS-Me,4-F) = C[C@@H](c1c[nH]c2cccc(F)c12)[C@H](N)C(=O)O; Bip(4'-COOH) = N[C@@H](Cc1ccc(-c2ccc(C(=O)O)cc2)cc1)C(=O)O; hQ = L-homoglutamine, NC(=O)CCC[C@H](N[*:1])C(=O)[*:2]; Phe(4-COOH) = N[C@@H](Cc1ccc(C(=O)O)cc1)C(=O)O; h3Pal(5-CN) = N#Cc1cncc(CC[C@H](N)C(=O)O)c1; Ala(4-THP) = N[C@@H](CC1CCOCC1)C(=O)O; hTyr = N[C@@H](CCc1ccc(O)cc1)C(=O)O; h4Pal = N[C@@H](CCc1ccncc1)C(=O)O; 4Pal = N[C@@H](Cc1ccncc1)C(=O)O; hLys = NCCCCC[C@H](N)C(=O)O; dDab = NCC[C@@H](N)C(=O)O; dNMeA = CN[C@H](C)C(=O)O

B1: SEQ ID NO: 56 (peptide)
peptide: cyclo([Bip(4'-COOH)]W[Phe(4-COOH)]G[Pro(trans-4-NH2)][Trp(4-Cl)(βS-Me)]N[dNMeA]G[Bip(4'-COOH)]WG[dDab][hTyr])
SMILES: C[C@@H]1C(=O)NCC(=O)N[C@@H](Cc2ccc(-c3ccc(C(=O)O)cc3)cc2)C(=O)N[C@@H](Cc2c[nH]c3ccccc23)C(=O)NCC(=O)N[C@H](CCN)C(=O)N[C@@H](CCc2ccc(O)cc2)C(=O)N[C@@H](Cc2ccc(-c3ccc(C(=O)O)cc3)cc2)C(=O)N[C@@H](Cc2c[nH]c3ccccc23)C(=O)N[C@@H](Cc2ccc(C(=O)O)cc2)C(=O)NCC(=O)N2C[C@H](N)C[C@H]2C(=O)N[C@@H]([C@@H](C)c2c[nH]c3cccc(Cl)c23)C(=O)N[C@@H](CC(N)=O)C(=O)N1C
B2: SEQ ID NO: 57 (peptide)
peptide: cyclo([Bip(4'-COOH)]W[Phe(4-COOH)]G[Pro(trans-4-NH2)][Trp(4-Cl)(βS-Me)]Q[dNMeA]G[Bip(4'-COOH)]WG[dDab][hTyr])
SMILES: C[C@@H]1C(=O)NCC(=O)N[C@@H](Cc2ccc(-c3ccc(C(=O)O)cc3)cc2)C(=O)N[C@@H](Cc2c[nH]c3ccccc23)C(=O)NCC(=O)N[C@H](CCN)C(=O)N[C@@H](CCc2ccc(O)cc2)C(=O)N[C@@H](Cc2ccc(-c3ccc(C(=O)O)cc3)cc2)C(=O)N[C@@H](Cc2c[nH]c3ccccc23)C(=O)N[C@@H](Cc2ccc(C(=O)O)cc2)C(=O)NCC(=O)N2C[C@H](N)C[C@H]2C(=O)N[C@@H]([C@@H](C)c2c[nH]c3cccc(Cl)c23)C(=O)N[C@@H](CCC(N)=O)C(=O)N1C
B3: SEQ ID NO: 60 (peptide)
peptide: cyclo([Bip(4'-COOH)]W[Phe(4-COOH)]G[Pro(trans-4-NH2)][Trp(βS-Me,4-F)]D[dNMeA]G[Bip(4'-COOH)]FL[dA][hTyr])
SMILES: CC(C)C[C@@H]1NC(=O)[C@H](Cc2ccccc2)NC(=O)[C@H](Cc2ccc(-c3ccc(C(=O)O)cc3)cc2)NC(=O)CNC(=O)[C@@H](C)N(C)C(=O)[C@H](CC(=O)O)NC(=O)[C@H]([C@@H](C)c2c[nH]c3cccc(F)c23)NC(=O)[C@@H]2C[C@@H](N)CN2C(=O)CNC(=O)[C@H](Cc2ccc(C(=O)O)cc2)NC(=O)[C@H](Cc2c[nH]c3ccccc23)NC(=O)[C@H](Cc2ccc(-c3ccc(C(=O)O)cc3)cc2)NC(=O)[C@H](CCc2ccc(O)cc2)NC(=O)[C@@H](C)NC1=O
B4: SEQ ID NO: 59 (peptide)
peptide: cyclo([Bip(4'-COOH)]W[Phe(4-COOH)]G[Pro(trans-4-NH2)][Trp(βS-Me,4-F)]D[dNMeA]G[Bip(4'-COOH)][4Pal]L[dA][hTyr])
SMILES: CC(C)C[C@@H]1NC(=O)[C@H](Cc2ccncc2)NC(=O)[C@H](Cc2ccc(-c3ccc(C(=O)O)cc3)cc2)NC(=O)CNC(=O)[C@@H](C)N(C)C(=O)[C@H](CC(=O)O)NC(=O)[C@H]([C@@H](C)c2c[nH]c3cccc(F)c23)NC(=O)[C@@H]2C[C@@H](N)CN2C(=O)CNC(=O)[C@H](Cc2ccc(C(=O)O)cc2)NC(=O)[C@H](Cc2c[nH]c3ccccc23)NC(=O)[C@H](Cc2ccc(-c3ccc(C(=O)O)cc3)cc2)NC(=O)[C@H](CCc2ccc(O)cc2)NC(=O)[C@@H](C)NC1=O
B5: SEQ ID NO: 64 (peptide)
peptide: cyclo([Bip(4'-COOH)]W[Phe(4-COOH)]G[Pro(trans-4-NH2)][Trp(βS-Me,4-F)]D[dNMeA]G[Bip(4'-COOH)]K[Ala(4-THP)][dA][h3Pal(5-CN)])
SMILES: C[C@@H]1C(=O)NCC(=O)N[C@@H](Cc2ccc(-c3ccc(C(=O)O)cc3)cc2)C(=O)N[C@@H](CCCCN)C(=O)N[C@@H](CC2CCOCC2)C(=O)N[C@H](C)C(=O)N[C@@H](CCc2cncc(C#N)c2)C(=O)N[C@@H](Cc2ccc(-c3ccc(C(=O)O)cc3)cc2)C(=O)N[C@@H](Cc2c[nH]c3ccccc23)C(=O)N[C@@H](Cc2ccc(C(=O)O)cc2)C(=O)NCC(=O)N2C[C@H](N)C[C@H]2C(=O)N[C@@H]([C@@H](C)c2c[nH]c3cccc(F)c23)C(=O)N[C@@H](CC(=O)O)C(=O)N1C
B6: SEQ ID NO: 58 (peptide)
peptide: cyclo([Bip(4'-COOH)]W[Phe(4-COOH)]G[Pro(trans-4-NH2)][Trp(βS-Me,4-F)]A[dNMeA]G[Bip(4'-COOH)]KL[dA][hTyr])
SMILES: CC(C)C[C@@H]1NC(=O)[C@H](CCCCN)NC(=O)[C@H](Cc2ccc(-c3ccc(C(=O)O)cc3)cc2)NC(=O)CNC(=O)[C@@H](C)N(C)C(=O)[C@H](C)NC(=O)[C@H]([C@@H](C)c2c[nH]c3cccc(F)c23)NC(=O)[C@@H]2C[C@@H](N)CN2C(=O)CNC(=O)[C@H](Cc2ccc(C(=O)O)cc2)NC(=O)[C@H](Cc2c[nH]c3ccccc23)NC(=O)[C@H](Cc2ccc(-c3ccc(C(=O)O)cc3)cc2)NC(=O)[C@H](CCc2ccc(O)cc2)NC(=O)[C@@H](C)NC1=O
B7: SEQ ID NO: 63 (peptide)
peptide: cyclo([Bip(4'-COOH)]W[Phe(4-COOH)]G[Pro(trans-4-NH2)][Trp(βS-Me,4-F)]D[dNMeA]G[Bip(4'-COOH)][hQ]L[dA][hTyr])
SMILES: CC(C)C[C@@H]1NC(=O)[C@H](CCCC(N)=O)NC(=O)[C@H](Cc2ccc(-c3ccc(C(=O)O)cc3)cc2)NC(=O)CNC(=O)[C@@H](C)N(C)C(=O)[C@H](CC(=O)O)NC(=O)[C@H]([C@@H](C)c2c[nH]c3cccc(F)c23)NC(=O)[C@@H]2C[C@@H](N)CN2C(=O)CNC(=O)[C@H](Cc2ccc(C(=O)O)cc2)NC(=O)[C@H](Cc2c[nH]c3ccccc23)NC(=O)[C@H](Cc2ccc(-c3ccc(C(=O)O)cc3)cc2)NC(=O)[C@H](CCc2ccc(O)cc2)NC(=O)[C@@H](C)NC1=O
B8: SEQ ID NO: 54 (peptide)
peptide: cyclo([Bip(4'-COOH)]W[Phe(4-COOH)]G[Pro(trans-4-NH2)][Trp(4-Cl)(βS-Me)]D[dNMeA]G[Bip(4'-COOH)]WG[dDab][hTyr])
SMILES: C[C@@H]1C(=O)NCC(=O)N[C@@H](Cc2ccc(-c3ccc(C(=O)O)cc3)cc2)C(=O)N[C@@H](Cc2c[nH]c3ccccc23)C(=O)NCC(=O)N[C@H](CCN)C(=O)N[C@@H](CCc2ccc(O)cc2)C(=O)N[C@@H](Cc2ccc(-c3ccc(C(=O)O)cc3)cc2)C(=O)N[C@@H](Cc2c[nH]c3ccccc23)C(=O)N[C@@H](Cc2ccc(C(=O)O)cc2)C(=O)NCC(=O)N2C[C@H](N)C[C@H]2C(=O)N[C@@H]([C@@H](C)c2c[nH]c3cccc(Cl)c23)C(=O)N[C@@H](CC(=O)O)C(=O)N1C
B9: SEQ ID NO: 55 (peptide)
peptide: cyclo([Bip(4'-COOH)]W[Phe(4-COOH)]G[Pro(trans-4-NH2)][Trp(4-Cl)(βS-Me)]E[dNMeA]G[Bip(4'-COOH)]WG[dDab][hTyr])
SMILES: C[C@@H]1C(=O)NCC(=O)N[C@@H](Cc2ccc(-c3ccc(C(=O)O)cc3)cc2)C(=O)N[C@@H](Cc2c[nH]c3ccccc23)C(=O)NCC(=O)N[C@H](CCN)C(=O)N[C@@H](CCc2ccc(O)cc2)C(=O)N[C@@H](Cc2ccc(-c3ccc(C(=O)O)cc3)cc2)C(=O)N[C@@H](Cc2c[nH]c3ccccc23)C(=O)N[C@@H](Cc2ccc(C(=O)O)cc2)C(=O)NCC(=O)N2C[C@H](N)C[C@H]2C(=O)N[C@@H]([C@@H](C)c2c[nH]c3cccc(Cl)c23)C(=O)N[C@@H](CCC(=O)O)C(=O)N1C
B10: SEQ ID NO: 6 (peptide)
peptide: cyclo([3AzaPhe4AcPip]W[Phe(4-COOH)]G[Pro(trans-4-NH2)][Trp(βS-Me,4-F)]D[dNMeA]G[Bip(4'-COOH)]KL[dA][hTyr])
SMILES: CC(=O)N1CCN(c2ccc(C[C@@H]3NC(=O)[C@H](CCc4ccc(O)cc4)NC(=O)[C@@H](C)NC(=O)[C@H](CC(C)C)NC(=O)[C@H](CCCCN)NC(=O)[C@H](Cc4ccc(-c5ccc(C(=O)O)cc5)cc4)NC(=O)CNC(=O)[C@@H](C)N(C)C(=O)[C@H](CC(=O)O)NC(=O)[C@H]([C@@H](C)c4c[nH]c5cccc(F)c45)NC(=O)[C@@H]4C[C@@H](N)CN4C(=O)CNC(=O)[C@H](Cc4ccc(C(=O)O)cc4)NC(=O)[C@H](Cc4c[nH]c5ccccc45)NC3=O)cn2)CC1
B11: SEQ ID NO: 61 (peptide)
peptide: cyclo([Bip(4'-COOH)]W[Phe(4-COOH)]G[Pro(trans-4-NH2)][Trp(βS-Me,4-F)]D[dNMeA]G[Bip(4'-COOH)][h4Pal]L[dA][hTyr])
SMILES: CC(C)C[C@@H]1NC(=O)[C@H](CCc2ccncc2)NC(=O)[C@H](Cc2ccc(-c3ccc(C(=O)O)cc3)cc2)NC(=O)CNC(=O)[C@@H](C)N(C)C(=O)[C@H](CC(=O)O)NC(=O)[C@H]([C@@H](C)c2c[nH]c3cccc(F)c23)NC(=O)[C@@H]2C[C@@H](N)CN2C(=O)CNC(=O)[C@H](Cc2ccc(C(=O)O)cc2)NC(=O)[C@H](Cc2c[nH]c3ccccc23)NC(=O)[C@H](Cc2ccc(-c3ccc(C(=O)O)cc3)cc2)NC(=O)[C@H](CCc2ccc(O)cc2)NC(=O)[C@@H](C)NC1=O
B12: SEQ ID NO: 62 (peptide)
peptide: cyclo([Bip(4'-COOH)]W[Phe(4-COOH)]G[Pro(trans-4-NH2)][Trp(βS-Me,4-F)]D[dNMeA]G[Bip(4'-COOH)][hLys]L[dA][hTyr])
SMILES: CC(C)C[C@@H]1NC(=O)[C@H](CCCCCN)NC(=O)[C@H](Cc2ccc(-c3ccc(C(=O)O)cc3)cc2)NC(=O)CNC(=O)[C@@H](C)N(C)C(=O)[C@H](CC(=O)O)NC(=O)[C@H]([C@@H](C)c2c[nH]c3cccc(F)c23)NC(=O)[C@@H]2C[C@@H](N)CN2C(=O)CNC(=O)[C@H](Cc2ccc(C(=O)O)cc2)NC(=O)[C@H](Cc2c[nH]c3ccccc23)NC(=O)[C@H](Cc2ccc(-c3ccc(C(=O)O)cc3)cc2)NC(=O)[C@H](CCc2ccc(O)cc2)NC(=O)[C@@H](C)NC1=O

Target: Recombinant human IL-1β (BioLegend 579404) (human, UniProt P01584 117-269)
Assay: cell-based or functional assay

In order of falling “MRC5 IC50” value:
1. B11  0.312 nM
2. B12  0.283 nM
3. B6  0.247 nM
4. B2  0.0873 nM
5. B8  0.0692 nM
6. B3  0.0689 nM
7. B10  0.0666 nM
8. B7  0.063 nM
9. B9  0.0493 nM
10. B4  0.0362 nM
11. B1  0.0207 nM
12. B5  0.0182 nM
